{
  "source": "IntAct's records for PubMed 19008854",
  "parents": {"B1": {"name": "Antiviral innate immune response effector IFIT1 (Homo sapiens), P09914 (parent)", "chain": "MSTNGDDHQVKDSLEQLRCHFTWELSIDDDEMPDLENRVLDQIEFLDTKYSVGIHNLLAYVKHLKGQNEEALKSLKEAENLMQEEHDNQANVRSLVTWGNFAWMYYHMGRLAEAQTYLDKVENICKKLSNPFRYRMECPEIDCEEGWALLKCGGKNYERAKACFEKVLEVDPENPESSAGYAISAYRLDGFKLATKNHKPFSLLPLRQAVRLNPDNGYIKVLLALKLQDEGQEAEGEKYIEEALANMSSQTYVFRYAAKFYRRKGSVDKALELLKKALQETPTSVLLHHQIGLCYKAQMIQIKEATKGQPRGQNREKLDKMIRSAIFHFESAVEKKPTFEVAHLDLARMYIEAGNHRKAEENFQKLLCMKPVVEETMQDIHFHYGRFQEFQKKSDVNAIIHYLKAIKIEQASLTRDKSINSLKKLVLRKLRRKALDLESLSLLGFVYKLEGNMNEALEYYERALRLAADFENSVRQGP", "partner": "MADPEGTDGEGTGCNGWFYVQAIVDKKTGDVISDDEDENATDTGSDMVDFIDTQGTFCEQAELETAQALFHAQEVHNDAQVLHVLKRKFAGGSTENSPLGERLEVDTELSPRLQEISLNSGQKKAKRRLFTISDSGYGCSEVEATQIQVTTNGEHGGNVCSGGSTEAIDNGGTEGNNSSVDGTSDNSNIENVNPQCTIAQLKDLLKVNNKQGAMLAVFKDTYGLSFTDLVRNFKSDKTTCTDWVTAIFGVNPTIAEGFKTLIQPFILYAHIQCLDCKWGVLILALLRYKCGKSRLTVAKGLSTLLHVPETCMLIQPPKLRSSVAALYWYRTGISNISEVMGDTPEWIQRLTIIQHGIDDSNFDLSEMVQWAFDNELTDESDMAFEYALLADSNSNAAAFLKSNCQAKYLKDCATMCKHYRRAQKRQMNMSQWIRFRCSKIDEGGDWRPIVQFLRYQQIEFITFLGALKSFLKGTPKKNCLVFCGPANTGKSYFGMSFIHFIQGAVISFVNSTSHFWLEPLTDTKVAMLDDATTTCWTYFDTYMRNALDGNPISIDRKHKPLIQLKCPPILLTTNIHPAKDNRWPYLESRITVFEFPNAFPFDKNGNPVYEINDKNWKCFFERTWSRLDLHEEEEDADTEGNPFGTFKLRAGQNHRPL"}},
  "data": [
    {"variants_of": "B1", "conditions": "with ve1_hpv18 E1, P06789", "values": [
      {"variant": "V121E", "effect of a mutation on the interaction": "disrupting interaction"},
      {"variant": "A114T", "effect of a mutation on the interaction": "disrupting interaction"},
      {"variant": "L118R", "effect of a mutation on the interaction": "disrupting interaction"}
    ]}
  ]
}
